Data published in paper PMC7226732 (2020).

B1: V5-Cx40 (wild type) [rat] / GFP-LC3B (expressed in HEK293A cells) [not stated (human cDNA cloned; a plasmid from Dr. Yoshimori also named)] (parent complex)
chain 1: MGDWSFLGEFLEEVHKHSTVIGKVWLTVLFIFRMLVLGTAAESSWGDEQADFRCDTIQPGCQNVCYDQAFPISHIRYWVLQIIFVSTPSLVYMGHAMHTVRMQEKQKLREAEKAKEAGGTGTYEYLAEKAELSCWKEVNGKIVLQGTLLNTYVCTILIRTAMEVAFMVGQYLLYGIFLDTLHVCRRSPCPHPVNCYVSRPTEKNVFIVFMMAVAGLSLFLSLAELYHLGWKKIRQRLAKSRQGDKHQLLGPSTSLVQGLTPPPDFNQCLKNSPDEKFFSDFSNNMGSRKNPDPLATEEVPNQEQIPEEGFIHTQYGQKPEQPSGASAGHRFPQGYHSDKRRLSKASSKARSDDLSV
chain 2: not shown

Variants of: B1
Assay: co-immunoprecipitation (IP: V5) and Western blot quantification; HEK293A cell lysates; read off a plot

Row | Variant | ratio to parent
1 | chain 1 W4A, chain 1 L7A | ~1.9
